{
  "source": "patent US11789019B2",
  "about": "(priority 2014, dated 2023)",
  "molecules": {"B1": {"name": "rCalnexin: recombinant Paracoccidioides brasiliensis Calnexin with C-terminal 6×His tag expressed in E. coli, 63 kD (protein)", "chain": "MRLNASLASLILSSIALIGNVHAEDEVKEDATSTSSVIEKPTFTPTTLKAPFLEQFTDGWETRWTPSHAKKEDSKSEEDWAYVGTWAVEEPHVFNGMVGDKGLVVKNPAAHHAISAKFPKKIDNKGKTLVVQYEVKLQNSLNCGGAYMKLLQDNKKLHAEEFSNTSPYVIMFGPDKCGVTNKVHFIFKHKNPKTGEYEEKHMKLPPAVRVSKLSTLYTLIVNPDQSFQIRIDGAAVKNGTLLEDFSPAVNPEKEIDDPEDKKPEDWVDEAHIPDPEATKPEDWDEDAPYEIVDTDATQPEDWLVDEPTSIPDPEAQKPEDWDDEEDGDWIPPTIPNPKCSEVSGCGMWEPPMKKNPEYKGKWTAPMIDNPAYKGPWAPRKIANPNYFEDKTPSNFEPMGAIGFEIWTMQNDILFDNIYIGHSVEDAEKLKAETWDLKHPVEVAEEEAARPKDEEKKEGTLSFKEAPVKYIRGKIELFISLALENPVEAVKAVPEVAGGLGALLVTLVLIIVGAVGLGSPSPAPAAKKQAEKGKEKTAEAVSTAADNVKGEAKKRSGKAGE"}},
  "key": {"[1]": {"system": "calnexin peptide #1-specific CD4+ T cells", "assay_type": "in vivo, mouse"}, "[2]": {"system": "B. dermatitidis strain 26199", "assay_type": "in vivo, Blastomyces dermatitidis"}, "1807 cells [3]": {"system": "1807 cells", "assay_type": "cell-based, mouse", "settings": "calnexin peptide #1 13 amino acid sequence of the named species"}, "[4]": {"biological_target": "recombinant Calnexin (Paracoccidioides brasiliensis Calnexin with C-terminal 6xHis tag, from E. coli) (Paracoccidioides brasiliensis)"}, "human CD4+ T cells": {"system": "human CD4+ T cells", "experiment": "In vitro stimulation and identification of activated human T cells (PBMC, CD154 enrichment, CD137)", "assay_type": "cell-based"}, "1807 cells [5]": {"system": "1807 cells", "experiment": "In vivo activation and proliferation of adoptively transferred 1807 cells", "settings": "emulsified in complete Freund's adjuvant; CD44, CFSE"}, "[6]": {"settings": "10 μg/ml, CD137 on CD154 enriched CD4+ cells, positive >3-fold over medium alone"}},
  "note": "“Also recorded” adds a separate entry of the source. Where two headings read alike, the source gives them in different places.",
  "data": [
    {"molecule": "LVVKNPAAHHAIS (Blastomyces dermatitidis of strains 26199, 18808, Er-3, 14081; Histoplasma capsulatum of strains G186AR, Nam1, H88, H143; Aspergillus sp.1 of strain group.1; Arthroderma; listed as Ajellomyces capsulatus, listed as Ajellomyces dermatitidis, listed as Arthroderma benhamiae) [Peptide #1, synthetic 13 aa peptide, residues 103-115 of B. dermatitidis calnexin]", "values": [
      {"measurement": "calnexin-specific T cells vs. number of cells in control mice", "setting": "[1]; delivery via the i.v. route", "value": "more than 20 fold"},
      {"measurement": "pool of calnexin-specific T cells in the draining lymph nodes and spleen", "setting": "[1]; delivery via the i.v. route", "value": "> 1000", "unit": "cells"},
      {"measurement": "tetramer positive CD4+ T cells per animal", "setting": "[1]; naïve C57BL/6 mice", "value": 30},
      {"measurement": "protection against infection compared to preceding approaches", "setting": "[2]; i.v. delivery of calnexin peptide", "value": "vaccine efficacy was unchanged"}
    ]},
    {"molecule": "LVLKNEAAHHAIS (listed as Pneumocystis carinii) [Pneumocystis carinii_Rat Form 1]", "values": [
      {"measurement": "1807 reactive", "setting": "1807 cells [3]; listed as SEQ ID NO: 6", "value": "not reactive"}
    ]},
    {"molecule": "LVLKSRAKHHAIS (listed as Homo sapiens) [SEQ ID NO: 10, reference compound]", "values": [
      {"measurement": "1807 reactive", "setting": "1807 cells [3]", "value": "not reactive"}
    ]},
    {"molecule": "LVMKSRASHYAIS (Candida albicans) [Candida albicans_5314]", "values": [
      {"measurement": "1807 reactive", "setting": "1807 cells [3]; listed as SEQ ID NO: 9", "value": "not reactive"}
    ]},
    {"molecule": "1807 T-cell receptor (Blastomyces-specific TCR transgenic 1807 CD4+ T cells)", "values": [
      {"measurement": "activation (CD44) and proliferation (CFSE) of adoptively transferred 1807 cells in vivo", "setting": "[4]", "value": 85, "unit": "%"}
    ]},
    {"molecule": "B1", "values": [
      {"measurement": "tetramer-positive cells displaying CCR6 or CXCR3", "setting": "[1]; draining lymph nodes after vaccination", "value": "15-20%"},
      {"measurement": "proportion of CD44+ CD4+ T cells recruited to lung that are tetramer positive", "setting": "[1]; mouse, in vivo", "value": "more than doubles"},
      {"measurement": "tetramer positive lung cells that produced IL-17", "setting": "[1]; mouse, in vivo", "value": "about 50"},
      {"measurement": "tetramer-positive cells recruited to the lung that were IL-17 producers", "setting": "[1]; mouse, in vivo", "value": "~30", "unit": "%"},
      {"measurement": "immune subjects that responded", "setting": "human CD4+ T cells; [6]", "value": "five of six"},
      {"measurement": "non-immune subjects that responded", "setting": "human CD4+ T cells; [6]", "value": "One of four"},
      {"measurement": "concentration dependence of CD4+ T cell response", "setting": "human CD4+ T cells; immune subjects", "value": "dose-dependent; also recorded: concentration-dependent manner"},
      {"measurement": "frequency of activated (CD154) cells compared with Hsp60", "setting": "human CD4+ T cells; immune subjects", "value": "similar"},
      {"measurement": "response in the presence of polymyxin B (LPS contribution)", "setting": "human CD4+ T cells; immune subjects", "value": "not due to contaminating LPS; also recorded: retained in the presence of polymyxin B"},
      {"measurement": "transferred 1807 cells activated and proliferating", "setting": "1807 cells [5]", "value": "> 85", "unit": "%"},
      {"measurement": "survival", "setting": "[2]; in vivo", "value": "prolonged survival"}
    ]}
  ]
}
